Results as given in US20210355187A1, “GLP-2 FUSION POLYPEPTIDES AND USES FOR TREATING AND PREVENTING GASTROINTESTINAL CONDITIONS” (SHIRE-NPS PHARMACEUTICALS, INC., priority 2018, published 2021).
Read-outs that look alike come from different tables or passages of the source.

What was measured:
[1] = SEC-MALS assay (protein stability analysis); assay type: physicochemical; conditions: for SEC-MALS HMW: high molecular weight fraction; for SEC-MALS Main Peak: main peak fraction; for SEC-MALS Tailing Peak: tailing peak fraction
Protocol: A SEC-MALS assay was performed to determine the primary state (main peak) and its molecular weight. The GLP-2 peptibody A has the amino acid sequence set forth in SEQ ID NO: 1. The GLP-2 peptibody B has the amino acid sequence set forth in SEQ ID NO: 4. The GLP-2 peptibody C has the amino acid sequence set forth in SEQ ID NO: 7. The GLP-2 peptibody D has the amino acid sequence set forth in SEQ ID NO: 10.

[2] = cited from earlier work

| Compound | SEC-MALS HMW [1] [% HMW] | SEC-MALS Main Peak [1] [% Main Peak] | SEC-MALS Tailing Peak [1] [% Tailing Peak] | half-life ([2]; SBS patients) [h] | half-life ([2]; healthy patients) |
| --- | --- | --- | --- | --- | --- |
| GLP-2 peptibody B: GLP-2[A2G]-linker APAPAPAPAPAPAPAPAPAP-IgG1(LALA) Fc fusion having the amino acid sequence of SEQ ID NO: 4 | 1.2 | 80.7 | 18.1 |  |  |
| GLP-2 peptibody D: GLP-2[A2G] with C-terminal arginine-linker GGGGSGGGGSGGGGS-IgG1(LALA) Fc fusion having the amino acid sequence of SEQ ID NO: 10 | 1.4 | 86.8 | 11.8 |  |  |
| GLP-2 peptibody C: GLP-2[A2G]-linker AEAAAKEAAAKEAAAKALEAEAAAKEAAAKEAAAKA-IgG1(LALA) Fc fusion having the amino acid sequence of SEQ ID NO: 7 |  | 82.6 | 17.4 |  |  |
| CC[C@H](C)[C@H](NC(=O)[C@H](Cc1ccccc1)NC(=O)[C@H](CC(=O)O)NC(=O)[C@H](CCCNC(=N)N)NC(=O)[C@H](C)NC(=O)[C@H](C)NC(=O)[C@H](CC(C)C)NC(=O)[C@H](CC(N)=O)NC(=O)[C@H](CC(=O)O)NC(=O)[C@H](CC(C)C)NC(=O)[C@@H](NC(=O)[C@@H](NC(=O)[C@H](CC(N)=O)NC(=O)[C@H](CCSC)NC(=O)[C@H](CCC(=O)O)NC(=O)[C@H](CC(=O)O)NC(=O)[C@H](CO)NC(=O)[C@H](Cc1ccccc1)NC(=O)[C@H](CO)NC(=O)CNC(=O)[C@H](CC(=O)O)NC(=O)CNC(=O)[C@@H](N)Cc1c[nH]cn1)[C@@H](C)O)[C@@H](C)CC)C(=O)N[C@@H](CC(N)=O)C(=O)N[C@@H](Cc1c[nH]c2ccccc12)C(=O)N[C@@H](CC(C)C)C(=O)N[C@H](C(=O)N[C@@H](CCC(N)=O)C(=O)N[C@H](C(=O)N[C@@H](CCCCN)C(=O)N[C@H](C(=O)N[C@H](C(=O)N[C@@H](CC(=O)O)C(=O)O)[C@@H](C)O)[C@@H](C)CC)[C@@H](C)O)[C@@H](C)CC [Teduglutide] |  |  |  | ~1.3 | approximately 2 hours |
